The text below walks through data of patent US11883498B2, “Luteinizing hormone-releasing hormone receptor (LHRH-R) conjugates and uses thereof” (priority 2016, dated 2024).

In data set [1] the test system is MDA-MB231 tumor xenografts. The note with it: for Competition of kidney uptake by coadministered unlabeled conjugate: 100-fold excess unlabeled conjugate. On the procedure:
Animal Husbandry and in vivo tumor implantation. Female athymic nu/nu mice were purchased from Harlan laboratories. The animals were housed in a sterile environment and kept in 12 h light/day cycle. The animals have free access to rodent chow and water. 2×10^6 MDA-MB23 cells were suspended in 100 microliters of sterile phosphate buffer saline and injected subcutaneously into the right flank of each mouse.
In vivo imaging and biodistribution. All the animal experiments were conducted in accordance to the guidelines approved by Purdue Animal Care and Use Committee. The experiment was initiated once the tumor volume reached approximately 300-400 mm^3. Tumor volume was measured as 0.5×L×W2, where L is the longest axis and W is an axis perpendicular to L in mm. In the lateral tail vein, the mice were injected with 150 μCi of the radioactive conjugates (either in the presence or absence of excess of the unlabeled conjugates.) in 100 μl of sterile phosphate buffer saline For imaging mice were euthanized 2 h post injection by CO2 asphyxiation and imaged using Kodak Imaging Station. After imaging necroscopy was performed on animals to remove selected tissue and weighted. Tissue bound radioactivity was quantified by using gamma counter (Packard Gamma Counter) For time course study, the animals were sacrificed at following time points post injections: 2 h, 4 h, 6 h, and 8 h. Tissue of interest was weighed and the tissue bound radioactivity was counted by using gamma counter. Count per minute values of tissues bound radioactivity was decay corrected and converted into percentage injected dose per gram if the tissue (% ID/g). The data was analyzed by using GraphPad Prism.
In vivo whole body imaging and biodistribution of JL-L1A, JL-L2A and JL-L3A. In order to investigate the uptake of radioactive conjugates in LHRH-R positive tumors all the three conjugates (150 μCi) were injected the lateral vein of mice with MDA-MB231 tumors. For competition studies the mice were additional injected with 100-fold excess of the unlabeled conjugates. MDA-MB231 tumor bearing mice were injected with the ^99mTc chelated conjugates in their lateral tail vein (mice labeled as treated). Another group of mice were injected with the ^99mTc labeled molecules but in the presence of excess of the unlabeled conjugates. Images were taken 2 h post injections. FIG. 17A represents whole body imaging of JL-L1A whereas FIG. 17B and FIG. 17C represents the whole body imaging of JL-L2A and JL-L3A respectively. (n=5).
The further investigate the retention of 99mTc chelated JL-L3A, the radioactive conjugate was injected in mice with MDA-MB231 xenografts. After euthanizing the. Animals at 2 h, 4 h and 8 h post injection they were imaged and radioactivity associated with organs of interest was counted. […] MDA-MB231 tumor bearing mice were injected with the ^99mTc chelated conjugates in their lateral tail vein (mice labeled as treated). Another group of mice were injected with the ^99mTc labeled molecules but in the presence of excess of the unlabeled conjugates. Radioactivity of all the major organs and blood were determined 2 h post injection and the percentage injected dose per gram of the tissue was plotted. FIG. 18A represents biodistribution of JL-L1A whereas FIG. 18B and FIG. 18C represents the biodistribution of JL-L2A and JL-L3A respectively (n=5). Error bar indicates standard deviation.

In the next data set the target is T1, LHRH-R (Homo sapiens, UniProt P30968).
T1 construct: LHRH-R positive breast cancer cell, MDA-MB231; endogenous in cells; host or cells: MDA-MB231 breast cancer cells
T1 sequence (P30968 1-328): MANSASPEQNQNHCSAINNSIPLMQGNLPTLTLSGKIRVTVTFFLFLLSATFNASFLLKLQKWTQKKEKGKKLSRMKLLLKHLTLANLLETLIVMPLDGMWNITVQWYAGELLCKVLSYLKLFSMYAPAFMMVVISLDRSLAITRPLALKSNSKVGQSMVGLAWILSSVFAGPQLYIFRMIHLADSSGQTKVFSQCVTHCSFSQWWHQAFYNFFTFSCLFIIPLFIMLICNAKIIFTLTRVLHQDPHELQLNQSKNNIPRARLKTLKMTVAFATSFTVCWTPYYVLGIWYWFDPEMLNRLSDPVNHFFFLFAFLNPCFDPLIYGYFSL
Briefly: In vitro binding assay of 99mTc radioactive conjugate by cell bound radioactivity. The note with it: MDA-MB231 cells. On the procedure: In vitro binding assay. MDA-MB231 cells were seeded in 24 well plate and allowed to form a monolayer. […] The cells were incubated for 2 h at 37° C. and then rinsed three times with medium. After rinsing cells were dissolved by adding 0.5 ml of 0.25N NaOH to each well for 20 minutes. The cell bound radioactivity measured by using Packcard gamma counter and the Kd was calculated using the graphpad prism by plotting the cell bound radioactivity against the concentration of radiotracer. […] Solid circle indicates ^99mTc chelated conjugates whereas open circle indicates competition.
To determine the binding affinity, the MDA-MB231 cells were incubated with various concentrations of the radioactive conjugate JL-L1A either in the presence or absence of the unlabeled conjugate for 2 h at 37° C.

In another data set the test system is MDA-MB231 cells. Type of data set: cell-based, human. The note with it: free drug, 2 h exposure + 66 h, 3H-thymidine incorporation; read-out: IC50. On the procedure: (§1) In vitro determination of cell viability. MDA-MB231 and SKVO3 cells were seeded at a concentration of 10,000 cells per well on a 24 well plate and allowed to grow in monolayers. […] After incubating for 2 h at 37° C., cells were rinsed three times with fresh medium and then incubated in 0.5 ml fresh medium for an additional 66 h at 37° C. Sent medium was then replaced with 0.5 ml of medium containing ^3H-thymidine and incubated for additional 4 h. Cells were then again washed three times with the fresh medium and then incubated with 0.5 ml of 2.5% trichloroacetic acid for 10 min at room temperature. After removing the trichloroacetic acid, cells were dissolved in 0.25 N NaOH. Cell viability was determined by counting the incorporation of ^3H-thymidine in cells using scintillation counter (Packard, Packard Instrument Company). The IC50 value was derived from a plot of the percent of ^3H-thymidine incorporation versus log concentration using Graph Pad Prism 4.
(§2) In vitro cytotoxicity of tubulysin B hydrazide conjugate: To inspect the killing efficiency of the therapeutic conjugate, MDA-MB231 and SKOV3 cancer cells were incubated with various concentrations of JL-L3-TubBH either in the presence or absence of excess JL-L3, for 2 h at 37° C. After washing off the excess conjugate, the cells were incubated in fresh media for an additional 66 h followed by incubation with media containing ^3H-thymidine to assess cell viability. Radioactivity was counted using PerkinElmer's scintillation counter. The same procedure was repeated after exposing the cells to the free tubulysin B hydrazide.
For orientation: Uptake of a labelled nucleoside into DNA is a usual measure of proliferation.

A further data set relates to SKOV3 cells. Type of data set: cell-based, human. The conditions noted are these: free drug, 2 h exposure + 66 h, 3H-thymidine incorporation. On the procedure: as §1, §2

With `Cc1c(-c2cccc(CCC(=O)NCCCCCCCC(=O)N[C@H](CCC(=O)NC[C@H](O)[C@@H](O)[C@H](O)[C@H](O)CO)C(=O)N[C@H](CCC(=O)O)C(=O)N[C@H](CCC(=O)NC[C@H](O)[C@@H](O)[C@H](O)[C@H](O)CO)C(=O)NC[C@H](N)C(=O)N[C@@H](CC(=O)O)C(=O)N[C@@H](CS)C(=O)O)c2)c(=O)n(C[C@H](N)c2ccccc2)c(=O)n1Cc1c(F)cccc1F` (99mTc complex, metal not drawn) [JL-L3A], in data set [1] (99mTc conjugate), the “Kidney and liver uptake” value was “non-specific”. Also, in data set [1] (2 h post injection), the “Competition of kidney uptake by coadministered unlabeled conjugate” value is listed as “not competed” and the “Biodistribution compared among the three conjugates” value is “most favorable biodistributions”. In data set [1] (150 μCi, 2 h post injection), the Kidney uptake result was “highest uptake in the kidney” and the Spleen uptake result was “only minimal activity”. In addition, the “Tissue distribution at 4 h and 8 h post injection” value in data set [1] (compared with 2 h post injection) is given as “same pattern as 2 h post injection”. Besides, the “Tumor radioactivity intensity at 8 h relative to 2 h post-injection” value in data set [1] (time-dependent imaging, 2 h, 4 h, 8 h) is listed as “less than half of the intensity at 2 h post-injection”.
With `Cc1c(-c2cccc(CCC(=O)N[C@@H](CCC(=O)N[C@H](CCC(=O)NC[C@H](N)C(=O)N[C@@H](CC(=O)O)C(=O)N[C@@H](CS)C(=O)O)C(=O)O)C(=O)O)c2)c(=O)n(C[C@H](N)c2ccccc2)c(=O)n1Cc1c(F)cccc1F` [JL-L1A], the Tumor uptake result in data set [1] (150 μCi 99mTc conjugate i.v., 2 h post injection, with/without 100-fold excess unlabeled conjugate) is “highest uptake in the tumor”. Also, the “Uptake in other organs” value in data set [1] (150 μCi, 2 h post injection) is recorded as “uptake in other vital organs”.
On to `Cc1c(-c2cccc(CCC(=O)NCCOCCOCCOCCOCCOCCOCCC(=O)NC[C@H](N)C(=O)N[C@@H](CC(=O)O)C(=O)N[C@@H](CS)C(=O)O)c2)c(=O)n(C[C@H](N)c2ccccc2)c(=O)n1Cc1c(F)cccc1F` [JL-L2A], for which the “Competition of kidney uptake by coadministered unlabeled conjugate” value in data set [1] (2 h post injection) is listed as “not competed”. Moreover, in data set [1] (150 μCi, 2 h post injection), the Kidney uptake entry was “highest uptake in the kidney” and the Spleen uptake result is “significant non-specific uptake in the spleen”.
By Kd is commonly meant the constant that tells how readily two partners part at equilibrium. `Cc1c(-c2cccc(CCC(=O)NCCCCCCCC(=O)N[C@H](CCC(=O)NC[C@H](O)[C@@H](O)[C@H](O)[C@H](O)CO)C(=O)N[C@H](CCC(=O)O)C(=O)N[C@H](CCC(=O)NC[C@H](O)[C@@H](O)[C@H](O)[C@H](O)CO)C(=O)NC[C@H](N)C(=O)N[C@@H](CC(=O)O)C(=O)N[C@@H](CS)C(=O)O)c2)c(=O)n(C[C@H](N)c2ccccc2)c(=O)n1Cc1c(F)cccc1F` [JL-L3A]: the dissociation constant Kd on LHRH-R (99mTc chelated conjugate, 2 h at 37° C.) is 14.4 nM. The “Cell-bound radioactivity under competition” value on LHRH-R (presence of excess of competing ligand) is given as “diminished”.
As a reminder, the IC50 is the concentration that inhibits the measured activity by half. As to `CCCC(=O)OCN(C(=O)[C@@H](NC(=O)[C@H]1CCCCN1C)C(C)CC)[C@H](C[C@@H](OC(C)=O)c1nc(C(=O)N[C@@H](Cc2ccc(O)cc2)C[C@H](C)C(=O)NN)cs1)C(C)C` (stereo partly shown) [tubulysin B hydrazide, Tubulysin B hydrazide, reference compound], the IC50 with MDA-MB231 cells is 0.067 nM; with SKOV3 cells, 0.005 nM.
